{"source": "patent US4413056A", "about": "“Process for the preparation of penicillins and penicillin derivatives” (Beecham Group Limited, priority 1980, dated 1983)", "molecules": {"B1": {"name": "Subtilisin A: Subtilisin A, B licheniformis, supplier Novo; alkaline microbial serine proteinase EC 3.4.21.14 (protein, UniProt P00780 106-379, looked up)", "Subtilisin Carlsberg": "AQTVPYGIPLIKADKVQAQGFKGANVKVAVLDTGIQASHPDLNVVGGASFVAGEAYNTDGNGHGTHVAGTVAALDNTTGVLGVAPSVSLYAVKVLNSSGSGSYSGIVSGIEWATTNGMDVINMSLGGASGSTAMKQAVDNAYAKGVVVVAAAGNSGSSGNTNTIGYPAKYDSVIAVGAVDSNSNRASFSSVGAELEVMAPGAGVYSTYPTNTYATLNGTSMASPHVAGAAALILSKHPNLSASQVRNRLSSTATYLGSSFYYGKGLINVEAAAQ"}, "B2": {"name": "Protease type XI: Protease type XI Tritirachium album Proteinase K, supplier Sigma (protein, UniProt P06873 106-384, looked up)", "Proteinase K": "AAQTNAPWGLARISSTSPGTSTYYYDESAGQGSCVYVIDTGIEASHPEFEGRAQMVKTYYYSSRDGNGHGTHCAGTVGSRTYGVAKKTQLFGVKVLDDNGSGQYSTIIAGMDFVASDKNNRNCPKGVVASLSLGGGYSSSVNSAAARLQSSGVMVAVAAGNNNADARNYSPASEPSVCTVGASDRYDRRSSFSNYGSVLDIFGPGTSILSTWIGGSTRSISGTSMATPHVAGLAAYLMTLGKTTAASACRYIADTANKGDLSNIPFGTVNLLAYNNYQA"}, "B3": {"name": "Alcalase 1.5 M: Subtilisin A from B licheniformis, supplier Novo (protein, UniProt P00780 106-379, looked up)", "Subtilisin Carlsberg": "B1 Subtilisin Carlsberg"}, "B4": {"name": "Alcalase 0.6 L: Subtilisin A from B licheniformis, supplier Novo (protein, UniProt P00780 106-379, looked up)", "Subtilisin Carlsberg": "B1 Subtilisin Carlsberg"}, "B5": {"name": "Protease type VIII: Protease type VIII B subtilis, Subtilisin Carlsberg; Subtilopeptidase A, supplier Sigma (protein, UniProt P00780 106-379, looked up)", "Subtilisin Carlsberg": "B1 Subtilisin Carlsberg"}, "B6": {"name": "Protease Bacterial: Protease Bacterial (Subtilisin A) B Sublitisin, supplier CP (protein, UniProt P00780 106-379, looked up)", "Subtilisin Carlsberg": "B1 Subtilisin Carlsberg"}, "B7": {"name": "Proteinase D: Proteinase D (Subtilisin A) B licheniformis, supplier ABM (protein, UniProt P00780 106-379, looked up)", "Subtilisin Carlsberg": "B1 Subtilisin Carlsberg"}, "B8": {"name": "Protease type VII: Protease type VII B amyloliquefaciens, Nagarase; Subtilisin BPN, supplier Sigma (protein, UniProt P00782 108-382, looked up)", "Subtilisin BPN'": "AQSVPYGVSQIKAPALHSQGYTGSNVKVAVIDSGIDSSHPDLKVAGGASMVPSETNPFQDNNSHGTHVAGTVAALNNSIGVLGVAPSASLYAVKVLGADGSGQYSWIINGIEWAIANNMDVINMSLGGPSGSAALKAAVDKAVASGVVVVAAAGNEGTSGSSSTVGYPGKYPSVIAVGAVDSSNQRASFSSVGPELDVMAPGVSIQSTLPGNKYGAYNGTSMASPHVAGAAALILSKHPNWTNTQVRSSLENTTTKLGDSFYYGKGLINVQAAAQ"}}, "data": [{"test": "De-esterification of the benzyl ester using subtilisin A at controlled pH, ester and acid assayed by HPLC", "format": "biochemical", "settings": "after 4 hours reaction, 37° C., pH 7.5, subtilisin A 28.16 mg", "method": "Benzyl 6β-[2-(2-carboxy)-2-thien-3'-ylacetamido 6α-methoxy]penicillanate (0.825 g) was dissolved by adding slowly to stirred 0.25 M, pH 7.8 phosphate buffer (8 ml).\nSubtilisin A (28.16 mg) was dissolved in distilled water (10 ml).\nEster solution (3 ml) was added to distilled water (7 ml) and heated to 37° C. in a stirred, water jacketed glass vessel (60 ml) and the pH adjusted to 7.5 by the addition of 1 M NaOH. Subtilisin A solution (10 ml) was heated to 37° C. and added to the ester. The mixture was stirred, the temperature maintained at 37° C. and the pH maintained at 7.5 by the addition of 0.1 M sodium hydroxide.\nSamples were removed at appropriate intervals and assayed for ester and acid using the two HPLC systems described in Example 1.", "units": {"conversion of ester to acid": "%"}, "values": [{"molecule": "B1", "conversion of ester to acid": 88}]}, {"test": "De-esterification of the penicillin C3 benzyl ester by a number of enzymes, ester disappearance assayed by HPLC", "format": "biochemical", "settings": "enzyme solution 0.2 ml (5 mg/ml) plus ester solution 2 ml, phosphate buffer pH 7.8, 37° C., 16 hours", "method": "In order to determine the amount of hydrolysis of the benzyl ester of the C3 carboxyl group by a number of enzymes, the ester was subjected, in aqueous reaction mixture, to the action of the particular enzyme using the following procedure and assay procedure.\nEster solution--Ester (50 mg) was added slowly to stirred 0.25 M, pH 7.8 phosphate buffer (1 ml). When the ester was dissolved distilled water (9 ml) was added.\nEnzyme solution--Enzyme (5 mg) was dissolved in distilled water (1 ml).\nEnzymation--Enzyme solution (0.2 ml) was added to ester solution (2 ml) and the mixture was incubated at 37° C. for 16 hours.\nAssay--When the incubation was complete, the reaction mixture was filtered through glass fibre (Whatman GF/A) and assayed for disappearance of the ester by HPLC.\nExtent of conversion of ester to acid is determined as follows: [formula]\nIn table 1 the extent of conversion of ester to acid is shown for a number of samples of the enzyme of the present invention.", "units": {"Conversion (percentage conversion of the ester to 6[2(2-carboxy)-2-thien-3ylacetamid 6methoxy] penicillin)": "%"}, "values": [{"molecule": "B2", "Conversion (percentage conversion of the ester to 6[2(2-carboxy)-2-thien-3ylacetamid 6methoxy] penicillin)": 61.0}, {"molecule": "B3", "Conversion (percentage conversion of the ester to 6[2(2-carboxy)-2-thien-3ylacetamid 6methoxy] penicillin)": 88.6}, {"molecule": "B4", "Conversion (percentage conversion of the ester to 6[2(2-carboxy)-2-thien-3ylacetamid 6methoxy] penicillin)": 88.0}, {"molecule": "B5", "Conversion (percentage conversion of the ester to 6[2(2-carboxy)-2-thien-3ylacetamid 6methoxy] penicillin)": 89.0}, {"molecule": "B6", "Conversion (percentage conversion of the ester to 6[2(2-carboxy)-2-thien-3ylacetamid 6methoxy] penicillin)": 91.7}, {"molecule": "B7", "Conversion (percentage conversion of the ester to 6[2(2-carboxy)-2-thien-3ylacetamid 6methoxy] penicillin)": 100.0}, {"molecule": "B1", "Conversion (percentage conversion of the ester to 6[2(2-carboxy)-2-thien-3ylacetamid 6methoxy] penicillin)": 88.8}, {"molecule": "B8", "Conversion (percentage conversion of the ester to 6[2(2-carboxy)-2-thien-3ylacetamid 6methoxy] penicillin)": 78.0}]}]}
